The MegaScale stability set (Tsuboyama et al. 2023)

B1: r4_43_TrROS_Hall (parent)
chain: DLVTIKVPLENLEEIKKAAEKAGFKIVSISYDKENKEVTIVIEKKK

Variants of: B1
Assay: folding stability dG (cDNA display proteolysis); higher = more stable
Conditions: PBS, room temperature

Folding stability dG [kcal/mol]: each site, then its substitutions
K6: G 2.98; H 3.71; I 3.75; L 3.31; M 3.31; N 3.37; P 2.42; Q 3.04; R 3.84; S 3.52; T 3.77; V 3.5; W 3.39; Y 3.48
V7: A 3.81; C 3.66; D 1.97; E 2.93; F 3.46; G 3.46; H 3.12; I 3.6; K 3.01; L 3.51; M 3.63; N 2.53; P 2.19; Q 3.04; R 3.3; S 3.71; T 3.57; W 3.44; Y 3.24
P8: A 3.6; C 3.58; D 3.39; E 3.19; F 3.75; G 3.77; H 4.12; I 3.5; K 3.71; L 3.95; M 3.81; N 3.58; Q 3.53; R 3.27; S 3.49; T 3.68; V 3.72; W 3.7; Y 3.62
L9: A 3.66; D 3.42; E 3.46; F 3.69; G 3.08; H 3.57; I 3.61; K 3.66; M 3.53; N 3.58; P 3.53; Q 3.49; R 3.59; S 3.47; T 3.46; V 3.6; W 3.92; Y 3.39
E10: A 3.8; C 3.35; D 3.29; F 3.75; G 3.58; H 3.41; I 3.86; K 3.61; L 3.59; M 4.03; N 4.02; P 3.48; Q 3.52; R 3.72; S 3.85; T 3.75; V 3.68; W 3.79; Y 3.77
N11: A 3.83; C 3; D 3.4; E 3.27; F 3.59; G 3.34; H 3.83; I 3.73; K 3.65; L 3.67; M 3.51; P 2.5; Q 3.76; R 4.15; S 3.42; T 3.59; V 3.87; W 3.63; Y 4.11
L12: A 3.63; D 2.46; E 3.55; F 3.75; G 3.16; H 3.41; I 3.73; K 3.03; M 3.77; N 2.46; P 1.92; Q 3.25; R 2.8; S 3.38; T 3.23; V 3.56; W 3.67; Y 3.64
E13: A 3.28; C 3.74; D 3.64; F 3.99; G 3.63; H 3.55; I 3.69; K 3.62; L 3.9; M 3.68; N 3.6; P 3.52; Q 3.6; R 3.2; S 3.54; T 3.46; V 3.61; W 4.08; Y 3.77
E14: A 3.78; C 4.03; D 3.68; F 3.99; G 3.86; H 4.06; I 3.71; K 3.43; L 3.53; M 3.89; N 3.83; P 3.95; Q 3.56; R 3.78; S 3.7; T 3.76; V 3.71; W 3.86; Y 3.75
I15: A 4.01; C 3.45; D 2.44; E 3.39; F 4.13; G 3.06; H 3.73; K 3.37; L 3.71; M 3.42; N 3.08; P 1.54; Q 3.58; R 3.42; S 3.41; T 3.38; V 3.87; W 4.14; Y 3.88
K16: A 3.75; C 3.47; D 2.66; E 3.29; F 3.62; G 3.4; H 3.29; I 3.9; L 3.61; M 3.58; N 3.35; P 1.97; Q 3.57; R 3.37; S 3.58; T 3.88; V 3.6; W 3.8; Y 4.02
K17: A 3.56; C 3.75; D 3.44; E 3.45; F 4; G 3.73; H 3.83; I 3.8; L 3.73; M 3.82; N 3.17; P 2.14; Q 3.75; R 3.43; S 3.72; T 3.65; V 3.69; W 4.21; Y 4.27
A18: C 3.97; D 3.57; E 3.65; F 3.45; G 3.34; H 3.77; I 3.67; K 3.86; L 3.55; M 3.94; N 3.5; P 1.8; Q 3.62; R 3.72; S 3.65; T 3.43; V 3.73; W 4.29; Y 3.84
A19: C 3.44; D 1.76; E 2.89; F 3.52; G 3.23; H 3.45; I 3.61; K 3.32; L 3.69; M 3.95; N 3.55; P 1.44; Q 3.37; R 3.11; S 3.69; T 3.8; V 3.97; W 3.99; Y 3.68
E20: A 3.68; C 3.67; D 3.49; F 4.07; G 3.43; H 3.6; I 3.65; K 3.62; L 3.96; M 3.72; N 3.55; P 3.12; Q 3.28; R 3.72; S 3.66; T 3.27; V 3.56; W 3.99; Y 3.92
K21: A 3.79; C 3.87; D 3.16; E 2.94; F 4.43; G 3.83; H 3.78; I 3.93; L 3.57; M 4.03; N 3.42; P 2.74; Q 3.9; R 4.07; S 3.93; T 3.9; V 3.93; W 4.37; Y 4.25
A22: C 3.79; D 3.13; E 3.2; F 3.67; G 3.52; H 3.64; I 3.67; K 3.58; L 3.66; M 3.68; N 3.54; P 2.38; Q 3.62; R 3.68; S 3.56; T 3.33; V 3.75; W 4.33; Y 3.95
G23: A 3.54; C 3.84; D 2.75; E 3.18; F 3.61; H 3.79; I 2.98; K 3.73; L 3.52; M 3.46; N 3.44; P 2.92; Q 3.51; R 3.52; S 3.28; T 3.23; V 2.78; W 3.67
